± gives the standard deviation of the averaged measurements.
B1: library; a variant is named by its letters at N, in order (parent)
chain: AATGTTGTTGATGCAACCATAAAGTGATATTTAATAATTATTTATAATCAGCAACTTAACCACAAAACAACCATATATTGATATNTCACAAAACAACCATAANTTGATATTTTTGTGAATCGAGTATTTCAGCAAAACTACTGCAGTAAGAA

Experiments:
[1] = variants of: B1; experiment: relative integration efficiency (T-LR orientation) vs wild-type transposon end (log2 (normalized fold change)); transposon end mutated: left end; higher = more efficient transposition; settings: with VchCAST RNA-guided transposition machinery (E. coli BL21(DE3) host, lacZ target)
Experimental: (§1)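 Pooled, barcoded VchCAST (Tn6677) mini-transposon donor libraries; each variable transposon-end sequence sits in a fixed pDonor mini-transposon context (10-bp barcode and cargo not included). Left- or right-end libraries were co-transformed with pEffector (TniQ-Cascade, TnsABC, lacZ crRNA, T7, 0.1 mM IPTG) into E. coli BL21(DE3) and grown 18 h at 37 C. T-LR and T-RL junction amplicons were sequenced; output/input barcode fold change was normalised to the mean of four wild-type barcodes and log2-transformed. Two biological replicates; zero-count/undetected variants carry floor values (-10 / -15), censored here. Barcode uncoupling by PCR recombination adds noise.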

[2] = variants of: B1; experiment: relative integration efficiency (T-RL orientation) vs wild-type transposon end (log2 (normalized fold change)); transposon end mutated: left end; higher = more efficient transposition; settings: with VchCAST RNA-guided transposition machinery (E. coli BL21(DE3) host, lacZ target)
Experimental: as §1

Variant	relative integration efficiency (log2) [1]	relative integration efficiency (log2) [2]
CA A16C G24T T30A T104G T113A	-0.245 ± 0.15	-0.185 ± 0.23
TA A16C G24T T32G A33C A70C T76A T86G T104G T113A	-0.573 ± 0.99	-0.869 ± 0.48
CA A23G G24T A33T A102T T111C T113C	-0.354 ± 0.18	-0.967 ± 0.39
TA A16C G24T T32G A33C T76A A77G C87T A96C T110A T113A	-1.08 ± 1.6	-0.54 ± 0.44
CA A16C G24T T32G A33C A102T T111C T113C	-0.854 ± 0.58	-0.751 ± 0.51
TA A16C G24T T32G A33C A70C T76A T84A C87A T104A T110A T113A	-2.03 ± 1.6	-0.844 ± 0.55
TA A70C T76A T84A C87A A96C T110A T113A	0.233 ± 0.15	0.0312 ± 0.25
TA A22T G24T T31C A33C T76A A77G C87T A102T T111C T113C	-0.361 ± 0.78	-0.688 ± 0.55
TA A16C G24T T32G A33C T76A T78G C87A A96C T110A T113A	-0.283 ± 0.56	-0.233 ± 0.26
TA A16C G24T T32G A33C A70C T76A T86G T104A T110A T113A	-0.474 ± 0.24	-0.791 ± 0.56
TA A23G G24T A33T T76A T78A T84A C87A T104A T110A T113A	0.471 ± 0.38	0.117 ± 0.25
TA A16C G24T T32G A33C T76A T78G C87A A102T T111C T113C	-0.986 ± 0.79	-0.362 ± 0.18
TA A23G G24T A33T T76A T78A T84A C87A T104G T113A	0.315 ± 0.39	-0.265 ± 0.4
TA A23G G24T A33T A70C T76A T86G A96C T110A T113A	0.0515 ± 0.56	0.0613 ± 0.44
TA A22T G24T T31C A33C T76A T78G C87A A96C T110A T113A	-0.606 ± 0.66	-0.329 ± 0.25
TA A22T G24T T31C A33C T76A T78G C87A T104A T110A T113A	-0.444 ± 0.45	-0.395 ± 0.24
TA A16C G24T T32G A33C T76A T78G C87A T104G T113A	-0.174 ± 1.1	-0.675 ± 0.24
TA A23G G24T A33T T76A A77G C87T A96C T110A T113A	-0.603 ± 0.67	-0.516 ± 0.48
TA A16C G24T T32G A33C T76A A77G C87T A102T T111C T113C	-1.56 ± 0.58	-1.11 ± 0.63
TA A70C T76A T86G T104G T113A	0.359 ± 0.88	-0.145 ± 0.22

Variant	relative integration efficiency (log2) [1]	relative integration efficiency (log2) [2]
TA A22T G24T T31C A33C A70C T76A T84A C87A T104G T113A	-0.566 ± 0.36	-0.81 ± 0.5
TA A22T G24T T31C A33C T76A A77G C87T T104G T113A	-1.13 ± 0.85	-1.41 ± 0.56
TA A16C G24T T30A T76A T78A T84A C87A A96C T110A T113A	-0.28 ± 0.67	-0.316 ± 0.43
TA A16C G24T T32G A33C A70C T76A T84A C87A A96C T112G T113C	-0.915 ± 1.2	-0.234 ± 0.35
TA A16C G24T T30A T76A T78A T84A C87A T104G T113A	-0.559 ± 0.18	-0.412 ± 0.26
TA A16C G24T T30A T76A T78A T84A C87A T104A T110A T113A	0.114 ± 0.83	-0.0645 ± 0.35
TA G24A T30A A70C T76A T84A C87A A96C T110A T113A	0.37 ± 0.55	0.271 ± 0.25
TA A70C T76A T84A C87A A102T T111C T113C	0.619 ± 0.14	0.128 ± 0.4
TA A70C T76A T84A C87A T104G T113A	0.771 ± 0.098	0.69 ± 0.33
TA A16C G24T T32G A33C A70C T76A T84A C87A A96C T110A T113A	-0.499 ± 1.2	-0.0812 ± 0.47
CA A16C G24T T30A T104A T110A T113A	-0.532 ± 0.028	-0.543 ± 0.56
TA A16C G24T T32G A33C T76A T78A T84A C87A T104A T110A T113A	-0.781 ± 0.91	-0.706 ± 0.26
TA A23G G24T A33T T76A T78G C87A T104A T110A T113A	0.283 ± 0.28	0.0976 ± 0.22
TA A16C G24T T32G A33C T76A A77G C87T A96C T112G T113C	-0.88 ± 1.2	-0.489 ± 0.45
TA A22T G24T T31C A33C A70C T76A T86G T104G T113A	-0.49 ± 0.73	-0.861 ± 0.53
TA A22T G24T T31C A33C T76A T78G C87A T104G T113A	-0.379 ± 0.48	-0.685 ± 0.35
TA A22T G24T T31C A33C T76A A77G C87T A96C T110A T113A	0.345 ± 0.28	-0.753 ± 0.58
TA A16C G24T T30A T76A T78A T84A C87A A96C T112G T113C	-0.55 ± 0.9	-0.0685 ± 0.46
TA A22T G24T T31C A33C T76A T78G C87A A96C T112G T113C	-0.491 ± 0.49	-0.16 ± 0.22
TA A22T G24T T31C A33C T76A A77G C87T A96C T112G T113C	-0.0329 ± 0.84	-0.66 ± 0.42

Variant	relative integration efficiency (log2) [1]	relative integration efficiency (log2) [2]
TA A70C T76A T86G A96C T110A T113A	-0.0134 ± 0.035	-0.255 ± 0.15
TA A22T G24T T31C A33C A70C T76A T86G T104A T110A T113A	-0.292 ± 0.24	-0.768 ± 0.47
TA A23G G24T A33T T76A T78A T84A C87A A102T T111C T113C	-0.26 ± 0.5	0.131 ± 0.23
CA A23G G24T A33T A96C T112G T113C	-0.242 ± 0.57	-0.198 ± 0.26
TA A23G G24T A33T A70C T76A T86G T104A T110A T113A	-0.032 ± 0.14	-0.568 ± 0.3
TA A23G G24T A33T T76A T78G C87A A96C T112G T113C	0.535 ± 0.16	0.327 ± 0.1
CA A23G G24T A33T A96C T110A T113A	-0.448 ± 0.74	-0.516 ± 0.28
TA A16C G24T T30A T76A T78G C87A A96C T112G T113C	-0.557 ± 0.27	-0.232 ± 0.21
CA A16C G24T T32G A33C A96C T110A T113A	-1.02 ± 1.2	-0.362 ± 0.31
TA A16C G24T T32G A33C T76A A77G C87T T104G T113A	-0.746 ± 0.94	-1.52 ± 0.61
TA A23G G24T A33T A70C T76A T84A C87A T104G T113A	-0.16 ± 0.29	-0.158 ± 0.26
TA A70C T76A T84A C87A T104A T110A T113A	0.319 ± 0.13	-0.146 ± 0.28
TA A23G G24T A33T T76A A77G C87T T104G T113A	0.309 ± 0.37	-0.339 ± 0.36
TA A16C G24T T32G A33C T76A T78A T84A C87A A96C T110A T113A	-0.572 ± 0.61	-0.189 ± 0.31
TA A22T G24T T31C A33C T76A A77G C87T T104A T110A T113A	0.0775 ± 0.37	-0.819 ± 0.52
TA A23G G24T A33T A70C T76A T84A C87A A96C T110A T113A	0.218 ± 0.46	0.00966 ± 0.38
TA A22T G24T T31C A33C A70C T76A T86G A96C T110A T113A	0.00776 ± 0.18	-0.657 ± 0.25
TA A70C T76A T86G A96C T112G T113C	0.367 ± 0.4	-0.132 ± 0.23

— the supplement of paper PMC10201428
